These results are taken from publication PMC6717765, “p32 is a negative regulator of p53 tetramerization and transactivation” (Molecular Oncology, 2019).

B2: His-tagged p32 (wild type, recombinant) (natural protein, UniProt Q07021 74-282, looked up)
chain: LHTDGDKAFVDFLSDEIKEERKIQKHKTLPKMSGGWELELNGTEAKLVRKVAGEKITVTFNINNSIPPTFDGEEEPSQGQKVEEQEPELTSTPNFVVEVIKNDDGKKALVLDCHYPEDEVGQEDEAESDIFSIREVSFQSTGESEWKDTNYTLNTDSLDWALYDHLMDFLADRGVDNTFADELVELSTALEHQEYITFLEDLKSFVKSQ
notes: p32 (gC1qR/C1QBP/HABP1); also called His-p32; mature p32

Conditions in all cases: both partners purified
In test [1] the target is B2. Description: pull-down; GST or GST-p53 fusions immobilised on glutathione-Sepharose beads, His-tagged p32 in solution; overnight at 4 °C; 20 mM Tris/HCl pH 7.3, 0.2 M KCl, 0.2 mM EDTA, 20% glycerol, 0.01% Nonidet P-40; blot with anti-His.
A further test has as its target T1, GST-p53 (UniProt P04637 1-393).
T1 construct: p53; also called GST-fused p53; source: bacterially produced, purified on glutathione-Sepharose 4B beads
Described as above.

The target of test [2] is T2, FLAG-tagged p53 (recombinant) (UniProt P04637 1-393).
T2 construct: p53; also called FLAG-p53; source: E. coli Rosetta 2 (DE3) pLysS, purified (anti-FLAG M2 agarose)
In words: cross-linking; purified FLAG-p53 with or without p32 (molar ratio 1:1, 1:2, 1:4) overnight at 4 °C; 10 mM Tris/HCl pH 7.5, 50 mM NaCl, 0.1 mM EDTA, 1 mM DTT, 5% glycerol; 0.01% glutaraldehyde 10 min at 22 °C; SDS/PAGE and anti-FLAG blot for monomers, dimers, tetramers.

Test [3] concerns the target T2, FLAG-tagged p53 (recombinant). Description: pull-down; GST or GST-p32 fusions immobilised on glutathione-Sepharose beads, FLAG-tagged p53 in solution; overnight at 4 °C; 20 mM Tris/HCl pH 7.3, 0.2 M KCl, 0.2 mM EDTA, 20% glycerol, 0.01% Nonidet P-40; blot with anti-FLAG.

T2 sequence (P04637 whole entry): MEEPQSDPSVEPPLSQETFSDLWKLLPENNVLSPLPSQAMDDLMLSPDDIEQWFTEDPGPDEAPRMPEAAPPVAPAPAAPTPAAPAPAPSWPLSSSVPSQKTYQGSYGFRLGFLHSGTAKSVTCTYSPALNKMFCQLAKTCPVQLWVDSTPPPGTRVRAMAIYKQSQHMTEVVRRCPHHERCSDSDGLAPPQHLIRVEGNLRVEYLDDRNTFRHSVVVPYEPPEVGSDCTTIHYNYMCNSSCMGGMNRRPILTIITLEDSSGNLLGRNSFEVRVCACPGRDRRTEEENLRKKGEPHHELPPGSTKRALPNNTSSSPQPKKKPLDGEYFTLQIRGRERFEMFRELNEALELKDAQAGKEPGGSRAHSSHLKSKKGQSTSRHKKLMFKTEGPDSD
T1 sequence (P04637 whole entry, the tested form may be a part): as the sequence (P04637 whole entry) above

B1: GST-p53 tetramerization domain (residues 328-368) (domain or fragment, UniProt P04637 328-368, looked up)
chain: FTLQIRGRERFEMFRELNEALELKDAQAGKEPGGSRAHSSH
notes: source: bacterially produced, purified on glutathione-Sepharose 4B beads
Regarding B1, the binding result in test [1] is “binds”.

B2: the binding result (with GST-p53; in test [2]) was “binds” each time.

B3: GST-p32 C-terminal domain (residues 233-282) (domain or fragment, UniProt Q07021 233-282, looked up)
chain: WALYDHLMDFLADRGVDNTFADELVELSTALEHQEYITFLEDLKSFVKSQ
notes: source: expressed and purified on glutathione-Sepharose 4B beads
Consider B3, for which the binding result in test [3] is given as “binds”.

B4: GST-p32 (233-250) D249A (domain or fragment, UniProt Q07021 233-250, looked up)
chain: WALYDHLMDFLADRGVAN
notes: also called GST-p32 D249A; source: expressed and purified on glutathione-Sepharose 4B beads
For the molecule B4, in test [3], the binding result is “binds”.

B5: GST-p32 (233-250) (domain or fragment, UniProt Q07021 233-250, looked up)
chain: WALYDHLMDFLADRGVDN
notes: as for B3
On to B5, for which the binding result in test [3] is listed as “binds”.
